Measured values reported in the supplement of paper PMC10567573.

B1: TCAP (parent)
chain: YQRVLPLPIFTPAKMGATKEERED
B2: DCAF4 (parent)
chain: DSHILLCLMGLAETPGCATLLPAS

Variants of: B1
Assay: protein stability index of a GFP-peptide fusion (GPS, HEK-293T) (PSI 1-6); higher = more stable
Conditions: c terminus: a fixed tail appended
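Note: lentivirally expressed fusions sorted by FACS into six bins by GFP to DsRed ratio, PSI derived from sequencing read proportions per bin multiplied by bin number.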

Variant | protein stability index
YQRVLPLPIFTPAKMGATKEERSD [E23S] | 2
YQRVLPLPIFTPAKMGATKEERWD [E23W] | 2.53
YQRVLPLPIFTPAKMGATKEERMD [E23M] | 1.9
YQRVLPLPIFTPAKMGATKEERPD [E23P] | 1.95
YQRVLPLPIFTPAKMGATKEERRD [E23R] | 1.92
YQRVLPLPIFTPAKMGATKEERVD [E23V] | 2.79
YQRVLPLPIFTPAKMGATKEERND [E23N] | 1.8
YQRVLPLPIFTPAKMGATKEERQD [E23Q] | 1.69
YQRVLPLPIFTPAKMGATKEERTD [E23T] | 2.16
YQRVLPLPIFTPAKMGATKEERYD [E23Y] | 1.93
YQRVLPLPIFTPAKMGATKEERLD [E23L] | 2.22
YQRVLPLPIFTPAKMGATKEEREH [D24H] | 1.81
YQRVLPLPIFTPAKMGATKEEREV [D24V] | 1.87
YQRVLPLPIFTPAKMGATKEEREN [D24N] | 2.22
YQRVLPLPIFTPAKMGATKEEREP [D24P] | 1.85
YQRVLPLPIFTPAKMGATKEEREK [D24K] | 2.17
YQRVLPLPIFTPAKMGATKEERES [D24S] | 1.45
YQRVLPLPIFTPAKMGATKEEREF [D24F] | 1.75
YQRVLPLPIFTPAKMGATKEEREQ [D24Q] | 2.03
YQRVLPLPIFTPAKMGATKEEREY [D24Y] | 1.76
YQRVLPLPIFTPAKMGATKEEREG [D24G] | 1.84
YQRVLPLPIFTPAKMGATKEEREW [D24W] | 2.26
YQRVLPLPIFTPAKMGATKEEREC [D24C] | 1.98
YQRVLPLPIFTPAKMGATKEEREL [D24L] | 2.04
YQRVLPLPIFTPAKMGATKEEREM [D24M] | 1.86
YQRVLPLPIFTPAKMGATKEERET [D24T] | 3.05
YQRVLPLPIFTPAKMGATKEEREE [D24E] | 2.21
YQRVLPLPIFTPAKMGATKEEREI [D24I] | 1.99
YQRVLPLPIFTPAKMGATKEERER [D24R] | 1.55
YQRVLPLPIFTPAKMGATKEEREA [D24A] | 1.82

Variants of: B2
Assay: as above
Conditions: c terminus: a fixed tail appended

Variant | protein stability index
DSHILLCLMGLAETPGCAILLPAS [T19I] | 2.58
DSHILLCLMGLAETPGCAGLLPAS [T19G] | 2.93
DSHILLCLMGLAETPGCAQLLPAS [T19Q] | 1.43
DSHILLCLMGLAETPGCANLLPAS [T19N] | 2.42
DSHILLCLMGLAETPGCAMLLPAS [T19M] | 3.1
DSHILLCLMGLAETPGCALLLPAS [T19L] | 2.15
DSHILLCLMGLAETPGCAPLLPAS [T19P] | 2.5
DSHILLCLMGGAETPGCATLLPAS [L11G] | 1.6
DSHILLCLMGIAETPGCATLLPAS [L11I] | 1.97
DSHILLCLMGEAETPGCATLLPAS [L11E] | 1.3
DSHILLCLMGVAETPGCATLLPAS [L11V] | 2.65
DSHILLCLMGCAETPGCATLLPAS [L11C] | 2.76
DSHILLCLMGLPETPGCATLLPAS [A12P] | 3.88
DSHILLCLMGLEETPGCATLLPAS [A12E] | 2.25
DSHILLCLMGLCETPGCATLLPAS [A12C] | 2.96
DSHILLCLMGLRETPGCATLLPAS [A12R] | 2.39
DSHILLCLMGLKETPGCATLLPAS [A12K] | 1.92
DSHILLCLMGLYETPGCATLLPAS [A12Y] | 4
DSHILLCLMGLIETPGCATLLPAS [A12I] | 2.11
DSHILLCLMGLAETPGCATLLGAS [P22G] | 2.29
DSHICLCLMGLAETPGCATLLPAS [L5C] | 2.07
DSHIALCLMGLAETPGCATLLPAS [L5A] | 1.77

Variant | protein stability index
DSHIHLCLMGLAETPGCATLLPAS [L5H] | 1.8
DSHINLCLMGLAETPGCATLLPAS [L5N] | 1.73
DSHIGLCLMGLAETPGCATLLPAS [L5G] | 2.01
DSHIELCLMGLAETPGCATLLPAS [L5E] | 1.78
DSHILLCLMGLAETPICATLLPAS [G16I] | 2.9
DSHILLCLMGLAETPRCATLLPAS [G16R] | 2.39
DSHILLCLMGLAETPTCATLLPAS [G16T] | 1.99
DSHILLCLMGLAETPDCATLLPAS [G16D] | 3.45
DSHILLCLMGLAETPECATLLPAS [G16E] | 3.54
DSHILLCLMGLAETPNCATLLPAS [G16N] | 2.77
DSHILLCLMGLAETPKCATLLPAS [G16K] | 1.38
DSHILLCLMGLAETPGCPTLLPAS [A18P] | 2.65
DSHILLCLMGLAETPGCKTLLPAS [A18K] | 2.82
DSHILLCLMGLAETPGCVTLLPAS [A18V] | 1.92
DSHILLCLMGLAETPGCLTLLPAS [A18L] | 3.23
DSHILLCLMGLAETPGCETLLPAS [A18E] | 2.31
DSHILLCLMGLAETPGCGTLLPAS [A18G] | 1.11
DSHILLCLMGLAETPGCTTLLPAS [A18T] | 2.3
DSHILLCLMGLAETPGCMTLLPAS [A18M] | 3.66
DSHILLCLMGLAEEPGCATLLPAS [T14E] | 2.95
DSHILLCLMGLAEPPGCATLLPAS [T14P] | 2.53
DSHILLCLMGLAELPGCATLLPAS [T14L] | 3.09

Variant | protein stability index
DSHILLCLMGLAEMPGCATLLPAS [T14M] | 2.26
DSHILLCLMGLAEAPGCATLLPAS [T14A] | 2.93
DSHILLCLMGLAEWPGCATLLPAS [T14W] | 2.89
DSHILLCLMGLAEDPGCATLLPAS [T14D] | 1.92
DSYILLCLMGLAETPGCATLLPAS [H3Y] | 2.67
DSDILLCLMGLAETPGCATLLPAS [H3D] | 2.49
DSKILLCLMGLAETPGCATLLPAS [H3K] | 1.81
DSLILLCLMGLAETPGCATLLPAS [H3L] | 3.05
DSRILLCLMGLAETPGCATLLPAS [H3R] | 3.45
DSQILLCLMGLAETPGCATLLPAS [H3Q] | 2.02
DSHILLCLMCLAETPGCATLLPAS [G10C] | 3.17
DSHILLCLMQLAETPGCATLLPAS [G10Q] | 2.23
DSHILLCLMHLAETPGCATLLPAS [G10H] | 3.23
DSHILLCLMILAETPGCATLLPAS [G10I] | 3.16
DSHILLCLMKLAETPGCATLLPAS [G10K] | 3.89
DSHILLCLMGLAETPGCATLLPDS [A23D] | 2.79
DSHILLCLMGLAETPGCATLLPQS [A23Q] | 2.72
DSHILLCLMGLAETPGCATLLPLS [A23L] | 1.69
DSHILLCLMGLAETPGCATLLPHS [A23H] | 1.66
DSHILLCLMGLAETPGCATLLPRS [A23R] | 3.3
